Data from the supplement of paper PMC10065799, “High-throughput profiling of sequence recognition by tyrosine kinases and SH2 domains using bacterial peptide display” (eLife, 2023).

test system: Fer (mouse); assay: phosphorylation enrichment, bacterial display (enrichment ratio); higher = better substrate or ligand; peptides without Tyr show the background
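Note: 11-residue human phosphosite peptides and single-mutation variants displayed on the E. coli surface, counted by deep sequencing, each peptide's frequency after selection divided by its frequency in the unselected input library; frequency after pTyr selection over input frequency; kinase dosed for 20-30% of maximal phosphorylation in three min.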

First: QVQQIYSDSDL [MIB1_Y376_R371Q]
Second: FGSRLYKFAFK [FANCD2_Y458_L456R_YF]
The phosphorylation enrichment of the first is higher: 7.33 for the first, 0.311 for the second.

First: SLAARYFNWVS [FLT4_Y1230_YF]
Second: VAVVQYSGMGQ [COL6A1_Y878_T881M]
The phosphorylation enrichment of the first is higher: 0.479 for the first, 0.407 for the second.

First: LIDTVYSSSSA [OR4C12_Y71]
Second: VHFLVYHHHHH [CACNA1H_Y519_H516Y_YF]
The phosphorylation enrichment of the first is higher: 0.96 for the first, 0.493 for the second.

Going from DVLVEYQGEGR [GNS_Y416] to MTEEQYIKMNR [ARFGEF2_Y797_K794E], the phosphorylation enrichment rises from 0.43 to 0.524.

Going from TSESSYFKSLN [NGEF_Y288_A286S_YF] to GGQSVYHVHLH [HINT1_Y109], the phosphorylation enrichment rises from 0.436 to 0.455.

Compared with KALSLYTKLMN [STAM_Y371_E366K], GLPINYTTRRI [LAMA2_Y2894] is lower in phosphorylation enrichment: 0.588 for the first, 0.557 for the second.

Compared with KMTGRYEMFAR [UPB1_Y362_YF], NFNPNYCFAGK [ALK_Y1096_D1091N_YF] is higher in phosphorylation enrichment: 0.438 for the first, 0.706 for the second.

First: TIQSMYGCDVG [HLA-B_Y123_L119I]
Second: DLDLTYIFPNI [PTEN_Y27_YF]
The phosphorylation enrichment of the first is lower: 0.48 for the first, 0.56 for the second.

Going from LSPNMYNSKLW [TARSL2_Y457] to HNELYYEEAEH [VANGL1_Y345], the phosphorylation enrichment rises from 0.5 to 1.81.

First: PEADKYRLTYA [FGG_Y300]
Second: LLTALYFISRG [KCNH2_Y780]
The phosphorylation enrichment of the first is higher: 0.828 for the first, 0.716 for the second.

Going from KQELVYPNKKL [OPTN_Y356_T357P] to QCTSAHPLQPE [NANS_Y188_Y188H], the phosphorylation enrichment rises from 0.323 to 0.726.

Going from CPYNLYAEQLS [HGD_Y40] to RHYVYYYSYLL [PTEN_Y177_R173H], the phosphorylation enrichment rises from 1.36 to 1.37.

Going from LARDMYDKEYY [MET_Y1230] to HLQQSYLPRGT [TEX45_Y396], the phosphorylation enrichment falls from 0.71 to 0.697.

First: EPAVLYNLKDR [MYH7_Y103]
Second: VTNHIYTWVDP [DFNB31_Y234]
The phosphorylation enrichment of the first is lower: 0.455 for the first, 10.2 for the second.

Compared with CTTIHNNFMCN [TP53_Y234_Y234N_YF], VGTKRYMAPKV [ACVRL1_Y375_E379K] is lower in phosphorylation enrichment: 0.558 for the first, 0.443 for the second.

Compared with PGLKGYPGLSG [COL4A2_Y306_R304K], KGEDFYYVTCH [FHL1_Y149_C150Y] is higher in phosphorylation enrichment: 0.218 for the first, 0.71 for the second.

Work on NVSILYTASQA [CTNNA1_Y222_P219S] yielded a phosphorylation enrichment of 0.629.

target: Fyn (UniProt P06241); assay: as above
Sequence (P06241 whole entry, looked up): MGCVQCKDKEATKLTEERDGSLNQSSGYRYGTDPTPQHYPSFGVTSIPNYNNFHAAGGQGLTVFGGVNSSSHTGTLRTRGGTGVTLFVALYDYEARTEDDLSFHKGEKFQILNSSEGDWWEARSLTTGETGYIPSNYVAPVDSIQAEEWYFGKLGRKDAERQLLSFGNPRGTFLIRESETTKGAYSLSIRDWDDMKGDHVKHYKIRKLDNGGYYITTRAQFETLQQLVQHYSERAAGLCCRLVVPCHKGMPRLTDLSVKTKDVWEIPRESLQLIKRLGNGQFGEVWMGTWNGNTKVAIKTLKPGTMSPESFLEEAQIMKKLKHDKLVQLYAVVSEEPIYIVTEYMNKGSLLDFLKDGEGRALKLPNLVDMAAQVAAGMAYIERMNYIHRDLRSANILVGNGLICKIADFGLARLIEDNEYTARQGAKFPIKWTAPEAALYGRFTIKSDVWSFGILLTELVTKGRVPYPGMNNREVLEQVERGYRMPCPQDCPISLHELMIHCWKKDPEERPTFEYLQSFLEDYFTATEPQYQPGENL

Compared with QVQQIYSDSDL [MIB1_Y376_R371Q], FGSRLYKFAFK [FANCD2_Y458_L456R_YF] is lower in phosphorylation enrichment: 6.18 for the first, 0.433 for the second.

First: SLAARYFNWVS [FLT4_Y1230_YF]
Second: VAVVQYSGMGQ [COL6A1_Y878_T881M]
The phosphorylation enrichment of the first is higher: 0.494 for the first, 0.439 for the second.

First: LIDTVYSSSSA [OR4C12_Y71]
Second: VHFLVYHHHHH [CACNA1H_Y519_H516Y_YF]
The phosphorylation enrichment of the first is higher: 3.74 for the first, 0.527 for the second.

First: DVLVEYQGEGR [GNS_Y416]
Second: MTEEQYIKMNR [ARFGEF2_Y797_K794E]
The phosphorylation enrichment of the first is higher: 0.504 for the first, 0.451 for the second.

Compared with TSESSYFKSLN [NGEF_Y288_A286S_YF], GGQSVYHVHLH [HINT1_Y109] is higher in phosphorylation enrichment: 0.395 for the first, 0.865 for the second.

Compared with KALSLYTKLMN [STAM_Y371_E366K], GLPINYTTRRI [LAMA2_Y2894] is higher in phosphorylation enrichment: 0.46 for the first, 0.549 for the second.

Going from KMTGRYEMFAR [UPB1_Y362_YF] to NFNPNYCFAGK [ALK_Y1096_D1091N_YF], the phosphorylation enrichment rises from 0.386 to 0.612.

Compared with TIQSMYGCDVG [HLA-B_Y123_L119I], DLDLTYIFPNI [PTEN_Y27_YF] is higher in phosphorylation enrichment: 0.427 for the first, 6.27 for the second.

Going from LSPNMYNSKLW [TARSL2_Y457] to HNELYYEEAEH [VANGL1_Y345], the phosphorylation enrichment rises from 0.622 to 0.751.

First: PEADKYRLTYA [FGG_Y300]
Second: LLTALYFISRG [KCNH2_Y780]
The phosphorylation enrichment of the first is lower: 0.626 for the first, 0.732 for the second.

Going from KQELVYPNKKL [OPTN_Y356_T357P] to QCTSAHPLQPE [NANS_Y188_Y188H], the phosphorylation enrichment rises from 0.324 to 0.601.

Compared with CPYNLYAEQLS [HGD_Y40], RHYVYYYSYLL [PTEN_Y177_R173H] is lower in phosphorylation enrichment: 3.15 for the first, 1.59 for the second.

Compared with LARDMYDKEYY [MET_Y1230], HLQQSYLPRGT [TEX45_Y396] is higher in phosphorylation enrichment: 0.624 for the first, 0.939 for the second.

First: EPAVLYNLKDR [MYH7_Y103]
Second: VTNHIYTWVDP [DFNB31_Y234]
The phosphorylation enrichment of the first is lower: 0.583 for the first, 4.26 for the second.

Going from CTTIHNNFMCN [TP53_Y234_Y234N_YF] to VGTKRYMAPKV [ACVRL1_Y375_E379K], the phosphorylation enrichment falls from 0.507 to 0.301.

Going from PGLKGYPGLSG [COL4A2_Y306_R304K] to KGEDFYYVTCH [FHL1_Y149_C150Y], the phosphorylation enrichment rises from 0.213 to 0.692.

Sequence NVSILYTASQA [CTNNA1_Y222_P219S] has a phosphorylation enrichment of 0.447.

test system: AncSZ; assay: as above

First: QVQQIYSDSDL [MIB1_Y376_R371Q]
Second: FGSRLYKFAFK [FANCD2_Y458_L456R_YF]
The phosphorylation enrichment of the first is higher: 1.3 for the first, 0.571 for the second.

Compared with SLAARYFNWVS [FLT4_Y1230_YF], VAVVQYSGMGQ [COL6A1_Y878_T881M] is lower in phosphorylation enrichment: 1.15 for the first, 0.554 for the second.

First: LIDTVYSSSSA [OR4C12_Y71]
Second: VHFLVYHHHHH [CACNA1H_Y519_H516Y_YF]
The phosphorylation enrichment of the first is higher: 1.06 for the first, 0.88 for the second.

Going from DVLVEYQGEGR [GNS_Y416] to MTEEQYIKMNR [ARFGEF2_Y797_K794E], the phosphorylation enrichment falls from 0.945 to 0.941.

Compared with TSESSYFKSLN [NGEF_Y288_A286S_YF], GGQSVYHVHLH [HINT1_Y109] is lower in phosphorylation enrichment: 0.766 for the first, 0.619 for the second.

Compared with KALSLYTKLMN [STAM_Y371_E366K], GLPINYTTRRI [LAMA2_Y2894] is lower in phosphorylation enrichment: 1.36 for the first, 0.499 for the second.

First: KMTGRYEMFAR [UPB1_Y362_YF]
Second: NFNPNYCFAGK [ALK_Y1096_D1091N_YF]
The phosphorylation enrichment of the first is lower: 0.808 for the first, 1.25 for the second.

Going from TIQSMYGCDVG [HLA-B_Y123_L119I] to DLDLTYIFPNI [PTEN_Y27_YF], the phosphorylation enrichment rises from 0.886 to 4.58.

Going from LSPNMYNSKLW [TARSL2_Y457] to HNELYYEEAEH [VANGL1_Y345], the phosphorylation enrichment rises from 0.879 to 2.06.

First: PEADKYRLTYA [FGG_Y300]
Second: LLTALYFISRG [KCNH2_Y780]
The phosphorylation enrichment of the first is higher: 1.61 for the first, 1.57 for the second.

First: KQELVYPNKKL [OPTN_Y356_T357P]
Second: QCTSAHPLQPE [NANS_Y188_Y188H]
The phosphorylation enrichment of the first is lower: 0.576 for the first, 1.25 for the second.

Compared with CPYNLYAEQLS [HGD_Y40], RHYVYYYSYLL [PTEN_Y177_R173H] is higher in phosphorylation enrichment: 1.74 for the first, 1.89 for the second.

Going from LARDMYDKEYY [MET_Y1230] to HLQQSYLPRGT [TEX45_Y396], the phosphorylation enrichment falls from 1.83 to 1.04.

First: EPAVLYNLKDR [MYH7_Y103]
Second: VTNHIYTWVDP [DFNB31_Y234]
The phosphorylation enrichment of the first is lower: 0.722 for the first, 2.57 for the second.

First: CTTIHNNFMCN [TP53_Y234_Y234N_YF]
Second: VGTKRYMAPKV [ACVRL1_Y375_E379K]
The phosphorylation enrichment of the first is higher: 0.879 for the first, 0.377 for the second.

Going from PGLKGYPGLSG [COL4A2_Y306_R304K] to KGEDFYYVTCH [FHL1_Y149_C150Y], the phosphorylation enrichment rises from 0.476 to 1.35.

Work on NVSILYTASQA [CTNNA1_Y222_P219S] yielded a phosphorylation enrichment of 0.892.

target: MERTK (UniProt Q12866); assay: as above
Sequence (Q12866 whole entry, looked up): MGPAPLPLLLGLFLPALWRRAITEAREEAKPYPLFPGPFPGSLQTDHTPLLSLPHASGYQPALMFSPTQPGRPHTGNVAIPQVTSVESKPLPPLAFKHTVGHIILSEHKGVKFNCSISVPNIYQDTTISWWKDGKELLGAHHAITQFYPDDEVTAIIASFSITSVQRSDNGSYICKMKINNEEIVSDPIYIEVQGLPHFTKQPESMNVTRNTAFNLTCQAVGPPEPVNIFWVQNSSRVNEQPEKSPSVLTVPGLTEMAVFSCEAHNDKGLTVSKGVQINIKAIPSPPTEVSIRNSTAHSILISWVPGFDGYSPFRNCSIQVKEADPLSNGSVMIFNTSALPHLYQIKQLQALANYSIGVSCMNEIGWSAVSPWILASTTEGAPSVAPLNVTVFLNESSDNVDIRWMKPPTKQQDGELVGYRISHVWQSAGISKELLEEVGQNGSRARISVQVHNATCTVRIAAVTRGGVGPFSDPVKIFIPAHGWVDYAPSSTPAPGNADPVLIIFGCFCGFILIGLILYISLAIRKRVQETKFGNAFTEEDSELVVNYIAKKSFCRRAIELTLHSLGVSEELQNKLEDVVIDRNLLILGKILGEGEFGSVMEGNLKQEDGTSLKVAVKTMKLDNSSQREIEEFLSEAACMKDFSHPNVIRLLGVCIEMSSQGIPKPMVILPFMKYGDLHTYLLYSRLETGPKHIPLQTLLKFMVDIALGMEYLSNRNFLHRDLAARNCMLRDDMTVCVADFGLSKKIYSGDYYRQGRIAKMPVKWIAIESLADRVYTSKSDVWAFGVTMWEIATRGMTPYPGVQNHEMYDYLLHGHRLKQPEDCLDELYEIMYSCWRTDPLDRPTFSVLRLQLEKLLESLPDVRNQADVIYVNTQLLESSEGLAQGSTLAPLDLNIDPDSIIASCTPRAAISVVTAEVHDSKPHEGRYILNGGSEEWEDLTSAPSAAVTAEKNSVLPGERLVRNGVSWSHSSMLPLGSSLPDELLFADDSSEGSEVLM

Compared with QVQQIYSDSDL [MIB1_Y376_R371Q], FGSRLYKFAFK [FANCD2_Y458_L456R_YF] is lower in phosphorylation enrichment: 4.04 for the first, 0.406 for the second.

Compared with SLAARYFNWVS [FLT4_Y1230_YF], VAVVQYSGMGQ [COL6A1_Y878_T881M] is lower in phosphorylation enrichment: 0.636 for the first, 0.524 for the second.

Going from LIDTVYSSSSA [OR4C12_Y71] to VHFLVYHHHHH [CACNA1H_Y519_H516Y_YF], the phosphorylation enrichment falls from 0.641 to 0.388.

Compared with DVLVEYQGEGR [GNS_Y416], MTEEQYIKMNR [ARFGEF2_Y797_K794E] is lower in phosphorylation enrichment: 0.414 for the first, 0.386 for the second.

Compared with TSESSYFKSLN [NGEF_Y288_A286S_YF], GGQSVYHVHLH [HINT1_Y109] is higher in phosphorylation enrichment: 0.362 for the first, 0.434 for the second.

First: KALSLYTKLMN [STAM_Y371_E366K]
Second: GLPINYTTRRI [LAMA2_Y2894]
The phosphorylation enrichment of the first is lower: 0.446 for the first, 0.599 for the second.

First: KMTGRYEMFAR [UPB1_Y362_YF]
Second: NFNPNYCFAGK [ALK_Y1096_D1091N_YF]
The phosphorylation enrichment of the first is lower: 0.633 for the first, 0.846 for the second.

First: TIQSMYGCDVG [HLA-B_Y123_L119I]
Second: DLDLTYIFPNI [PTEN_Y27_YF]
The phosphorylation enrichment of the first is lower: 0.559 for the first, 3.52 for the second.

Going from LSPNMYNSKLW [TARSL2_Y457] to HNELYYEEAEH [VANGL1_Y345], the phosphorylation enrichment rises from 0.603 to 1.11.

Compared with PEADKYRLTYA [FGG_Y300], LLTALYFISRG [KCNH2_Y780] is higher in phosphorylation enrichment: 0.777 for the first, 3.27 for the second.

Compared with KQELVYPNKKL [OPTN_Y356_T357P], QCTSAHPLQPE [NANS_Y188_Y188H] is higher in phosphorylation enrichment: 0.374 for the first, 0.449 for the second.

Going from CPYNLYAEQLS [HGD_Y40] to RHYVYYYSYLL [PTEN_Y177_R173H], the phosphorylation enrichment rises from 2.67 to 5.71.

First: LARDMYDKEYY [MET_Y1230]
Second: HLQQSYLPRGT [TEX45_Y396]
The phosphorylation enrichment of the first is lower: 0.449 for the first, 0.66 for the second.

Compared with EPAVLYNLKDR [MYH7_Y103], VTNHIYTWVDP [DFNB31_Y234] is higher in phosphorylation enrichment: 0.473 for the first, 7.06 for the second.

First: CTTIHNNFMCN [TP53_Y234_Y234N_YF]
Second: VGTKRYMAPKV [ACVRL1_Y375_E379K]
The phosphorylation enrichment of the first is higher: 0.459 for the first, 0.424 for the second.

Compared with PGLKGYPGLSG [COL4A2_Y306_R304K], KGEDFYYVTCH [FHL1_Y149_C150Y] is higher in phosphorylation enrichment: 0.367 for the first, 1.32 for the second.

NVSILYTASQA [CTNNA1_Y222_P219S] showed a phosphorylation enrichment of 0.505.
